This note sets out measurements from publication PMC7299284, “Studies in humanized mice and convalescent humans yield a SARS-CoV-2 antibody cocktail” (Science (New York, N.y.), 2020).

The target in assay [1] is T1, RBD of SARS-CoV-2 spike (construct not told: ACE2 blocking, cross-competition and HDX-MS experiments) (SARS-CoV-2, UniProt P0DTC2).
T1 construct: also called spike protein RBD
Put plainly: HDX-MS; hydrogen-deuterium exchange mass spectrometry of spike protein RBD with each of nine antibodies. To be noted: both partners purified.

Assay [2] has as its target T1, RBD of SARS-CoV-2 spike (construct not …). Put plainly: cross-competition binding assay; cross-competition of the nine most-potent neutralizing antibodies for binding to RBD (fig. S7).

B1: REGN10933 (antibody, V domains shown)
VH: QVQLVESGGGLVKPGGSLRLSCAASGFTFSDYYMSWIRQAPGKGLEWVSYITYSGSTIYYADSVKGRFTISRDNAKSSLYLQMNSLRAEDTAVYYCARDRGTTMVPFDYWGQGTLVTVSS
VL: DIQMTQSPSSLSASVGDRVTITCQASQDITNYLNWYQQKPGKAPKLLIYAASNLETGVPSRFSGSGSGTDFTFTISGLQPEDIATYYCQQYDNLPLTFGGGTKVEIK
notes: source: CHO cells, transfected, recombinant fully human antibody; copies: 2 + 2
As for B1, in assay [1], the binding result was “binds”.

B2: REGN10987 (antibody, V domains shown)
VH: QVQLVESGGGVVQPGRSLRLSCAASGFTFSNYAMYWVRQAPGKGLEWVAVISYDGSNKYYADSVKGRFTISRDNSKNTLYLQMNSLRTEDTAVYYCASGSDYGDYLLVYWGQGTLVTVSS
VL: QSALTQPASVSGSPGQSITISCTGTSSDVGGYNYVSWYQQHPGKAPKLMIYDVSKRPSGVSNRFSGSKSGNTASLTISGLQSEDEADYYCNSLTSISTWVFGGGTKLTVL
notes: as for B1
B2: the binding result in assay [2] was “binds”.
